Laboratory results taken from the supplement of paper PMC10567573.

B1: C2CD2L (parent)
chain: EPAGSLRELGVWRSLLRLRATRAG
B2: TOR1AIP2 (parent)
chain: DGAGRTWQDSDTVKLLVDLELSYG

Variants of: B1
Test: protein stability index of a GFP-peptide fusion (GPS, HEK-293T) (PSI 1-6); higher = more stable
Conditions: c terminus: a fixed tail appended
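Note: lentivirally expressed fusions sorted by FACS into six bins by GFP to DsRed ratio, PSI derived from sequencing read proportions per bin multiplied by bin number.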

With EPAGSLRELGVWRSLLRLRAWRAG as the variant, how does the protein stability index read?
Its protein stability index is 1.31.

Which protein stability index does the source give for EPAGSLRELGVWRSLLRLRAMRAG here?
The protein stability index was 2.3.

With EPAGSLRELGVWRSLLRLRAVRAG as the variant, how does the protein stability index read?
Its protein stability index is 1.7.

Which protein stability index does the source give for EPAGSLRELGVWRSLLRLRALRAG here?
The protein stability index was 2.12.

For EPAGSLRELGVWRSLLRLRACRAG, which protein stability index is on record?
The protein stability index was 2.07.

With EPAGSLRELGVWRSLLRLRAYRAG as the variant, how does the protein stability index read?
The protein stability index was 2.42.

Which protein stability index does the source give for EPAGSLRELGVWRSLLRLRATHAG here?
The protein stability index was 2.01.

For EPAGSLRELGVWRSLLRLRATGAG, which protein stability index is on record?
Its protein stability index is 2.36.

Which protein stability index does the source give for EPAGSLRELGVWRSLLRLRATDAG here?
Its protein stability index is 2.3.

Which protein stability index does the source give for EPAGSLRELGVWRSLLRLRATFAG here?
Its protein stability index is 2.1.

Which protein stability index does the source give for EPAGSLRELGVWRSLLRLRATPAG here?
The protein stability index was 2.14.

With EPAGSLRELGVWRSLLRLRATSAG as the variant, how does the protein stability index read?
The protein stability index was 2.23.

Which protein stability index does the source give for EPAGSLRELGVWRSLLRLRATYAG here?
Its protein stability index is 1.34.

With EPAGSLRELGVWRSLLRLRATKAG as the variant, how does the protein stability index read?
The protein stability index was 2.66.

For EPAGSLRELGVWRSLLRLRATEAG, which protein stability index is on record?
Its protein stability index is 2.25.

Which protein stability index does the source give for EPAGSLRELGVWRSLLLLRATRAG here?
The protein stability index was 1.53.

For EPAGSLRELGVWRSLLHLRATRAG, which protein stability index is on record?
The protein stability index was 2.65.

With EPAGSLRELGVWRSLLELRATRAG as the variant, how does the protein stability index read?
The protein stability index was 3.13.

Which protein stability index does the source give for EPAGSLRELGVWRSLLILRATRAG here?
Its protein stability index is 2.46.

With EPAGSLRELGVWRSLLGLRATRAG as the variant, how does the protein stability index read?
Its protein stability index is 3.26.

With EPAGSLRELGVWRSLLWLRATRAG as the variant, how does the protein stability index read?
The protein stability index was 1.6.

Which protein stability index does the source give for EPAGSLRELGVWRSLLFLRATRAG here?
Its protein stability index is 1.95.

For EPAGSLRELGVWRSLLSLRATRAG, which protein stability index is on record?
The protein stability index was 3.04.

Which protein stability index does the source give for EPAGSLRELGVWRSLLALRATRAG here?
The protein stability index was 2.91.

With EPAGSLRELGVWRSLLTLRATRAG as the variant, how does the protein stability index read?
The protein stability index was 2.3.

Which protein stability index does the source give for EPAGSLRELGVWRSLLMLRATRAG here?
The protein stability index was 1.2.

For EPAGSLRELGVWRSLLDLRATRAG, which protein stability index is on record?
The protein stability index was 3.73.

With EPAGSLRELGVWRSLLCLRATRAG as the variant, how does the protein stability index read?
Its protein stability index is 2.15.

Variants of: B2
Test: as above
Conditions: c terminus: a fixed tail appended

For DGACRTWQDSDTVKLLVDLELSYG, which protein stability index is on record?
Its protein stability index is 2.02.

For DGAIRTWQDSDTVKLLVDLELSYG, which protein stability index is on record?
Its protein stability index is 2.38.

Which protein stability index does the source give for DGAQRTWQDSDTVKLLVDLELSYG here?
The protein stability index was 1.43.

With DGALRTWQDSDTVKLLVDLELSYG as the variant, how does the protein stability index read?
The protein stability index was 2.34.

Which protein stability index does the source give for DGAKRTWQDSDTVKLLVDLELSYG here?
The protein stability index was 2.63.

For DGANRTWQDSDTVKLLVDLELSYG, which protein stability index is on record?
Its protein stability index is 2.05.

With DGAFRTWQDSDTVKLLVDLELSYG as the variant, how does the protein stability index read?
Its protein stability index is 2.26.

For DGAARTWQDSDTVKLLVDLELSYG, which protein stability index is on record?
The protein stability index was 1.8.

Which protein stability index does the source give for DGAYRTWQDSDTVKLLVDLELSYG here?
The protein stability index was 3.85.

With DGAHRTWQDSDTVKLLVDLELSYG as the variant, how does the protein stability index read?
Its protein stability index is 1.62.

For DGAERTWQDSDTVKLLVDLELSYG, which protein stability index is on record?
The protein stability index was 2.58.

Which protein stability index does the source give for DGATRTWQDSDTVKLLVDLELSYG here?
The protein stability index was 2.05.

With DGAVRTWQDSDTVKLLVDLELSYG as the variant, how does the protein stability index read?
The protein stability index was 2.22.

For DGAPRTWQDSDTVKLLVDLELSYG, which protein stability index is on record?
Its protein stability index is 2.12.

With DGAMRTWQDSDTVKLLVDLELSYG as the variant, how does the protein stability index read?
The protein stability index was 1.35.

For DGARRTWQDSDTVKLLVDLELSYG, which protein stability index is on record?
The protein stability index was 1.93.

With DGASRTWQDSDTVKLLVDLELSYG as the variant, how does the protein stability index read?
The protein stability index was 2.01.

With EGAGRTWQDSDTVKLLVDLELSYG as the variant, how does the protein stability index read?
Its protein stability index is 1.69.

With GGAGRTWQDSDTVKLLVDLELSYG as the variant, how does the protein stability index read?
Its protein stability index is 1.68.

For WGAGRTWQDSDTVKLLVDLELSYG, which protein stability index is on record?
The protein stability index was 2.93.

Which protein stability index does the source give for QGAGRTWQDSDTVKLLVDLELSYG here?
Its protein stability index is 1.53.

With TGAGRTWQDSDTVKLLVDLELSYG as the variant, how does the protein stability index read?
The protein stability index was 3.05.

With NGAGRTWQDSDTVKLLVDLELSYG as the variant, how does the protein stability index read?
Its protein stability index is 1.32.

For HGAGRTWQDSDTVKLLVDLELSYG, which protein stability index is on record?
The protein stability index was 2.29.

Which protein stability index does the source give for KGAGRTWQDSDTVKLLVDLELSYG here?
Its protein stability index is 4.34.

For DGAGDTWQDSDTVKLLVDLELSYG, which protein stability index is on record?
Its protein stability index is 2.39.

With DGAGLTWQDSDTVKLLVDLELSYG as the variant, how does the protein stability index read?
Its protein stability index is 2.27.

Which protein stability index does the source give for DGAGFTWQDSDTVKLLVDLELSYG here?
The protein stability index was 1.74.

With DGAGKTWQDSDTVKLLVDLELSYG as the variant, how does the protein stability index read?
The protein stability index was 2.1.

With DGAGHTWQDSDTVKLLVDLELSYG as the variant, how does the protein stability index read?
The protein stability index was 3.25.

With DGAGITWQDSDTVKLLVDLELSYG as the variant, how does the protein stability index read?
Its protein stability index is 1.85.

For DGAGGTWQDSDTVKLLVDLELSYG, which protein stability index is on record?
The protein stability index was 1.64.

Which protein stability index does the source give for DGAGETWQDSDTVKLLVDLELSYG here?
Its protein stability index is 2.67.

With DGAGPTWQDSDTVKLLVDLELSYG as the variant, how does the protein stability index read?
Its protein stability index is 1.84.

With DGAGATWQDSDTVKLLVDLELSYG as the variant, how does the protein stability index read?
Its protein stability index is 1.95.

For DGAGCTWQDSDTVKLLVDLELSYG, which protein stability index is on record?
Its protein stability index is 1.13.

Which protein stability index does the source give for DGAGNTWQDSDTVKLLVDLELSYG here?
Its protein stability index is 2.74.

With DHAGRTWQDSDTVKLLVDLELSYG as the variant, how does the protein stability index read?
Its protein stability index is 1.07.

For DIAGRTWQDSDTVKLLVDLELSYG, which protein stability index is on record?
The protein stability index was 1.28.

Which protein stability index does the source give for DRAGRTWQDSDTVKLLVDLELSYG here?
Its protein stability index is 2.06.

Which protein stability index does the source give for DKAGRTWQDSDTVKLLVDLELSYG here?
The protein stability index was 3.03.

With DYAGRTWQDSDTVKLLVDLELSYG as the variant, how does the protein stability index read?
The protein stability index was 2.53.

With DCAGRTWQDSDTVKLLVDLELSYG as the variant, how does the protein stability index read?
The protein stability index was 3.68.

With DSAGRTWQDSDTVKLLVDLELSYG as the variant, how does the protein stability index read?
The protein stability index was 1.84.

Which protein stability index does the source give for DTAGRTWQDSDTVKLLVDLELSYG here?
Its protein stability index is 4.39.

With DDAGRTWQDSDTVKLLVDLELSYG as the variant, how does the protein stability index read?
Its protein stability index is 2.53.

For DNAGRTWQDSDTVKLLVDLELSYG, which protein stability index is on record?
The protein stability index was 2.01.

For DPAGRTWQDSDTVKLLVDLELSYG, which protein stability index is on record?
Its protein stability index is 2.31.

For DVAGRTWQDSDTVKLLVDLELSYG, which protein stability index is on record?
The protein stability index was 1.39.

For DEAGRTWQDSDTVKLLVDLELSYG, which protein stability index is on record?
The protein stability index was 1.91.

Which protein stability index does the source give for DLAGRTWQDSDTVKLLVDLELSYG here?
Its protein stability index is 1.74.

For DAAGRTWQDSDTVKLLVDLELSYG, which protein stability index is on record?
Its protein stability index is 2.29.

For DQAGRTWQDSDTVKLLVDLELSYG, which protein stability index is on record?
The protein stability index was 2.69.

With DGHGRTWQDSDTVKLLVDLELSYG as the variant, how does the protein stability index read?
The protein stability index was 1.39.

For DGRGRTWQDSDTVKLLVDLELSYG, which protein stability index is on record?
The protein stability index was 1.79.

With DGIGRTWQDSDTVKLLVDLELSYG as the variant, how does the protein stability index read?
Its protein stability index is 1.09.

Which protein stability index does the source give for DGVGRTWQDSDTVKLLVDLELSYG here?
The protein stability index was 1.41.

For DGSGRTWQDSDTVKLLVDLELSYG, which protein stability index is on record?
The protein stability index was 1.4.

For DGYGRTWQDSDTVKLLVDLELSYG, which protein stability index is on record?
The protein stability index was 2.5.

For DGCGRTWQDSDTVKLLVDLELSYG, which protein stability index is on record?
Its protein stability index is 2.55.

For DGPGRTWQDSDTVKLLVDLELSYG, which protein stability index is on record?
The protein stability index was 1.13.

Which protein stability index does the source give for DGNGRTWQDSDTVKLLVDLELSYG here?
Its protein stability index is 1.73.

For DGEGRTWQDSDTVKLLVDLELSYG, which protein stability index is on record?
The protein stability index was 1.81.

For DGKGRTWQDSDTVKLLVDLELSYG, which protein stability index is on record?
The protein stability index was 1.65.

With DGMGRTWQDSDTVKLLVDLELSYG as the variant, how does the protein stability index read?
The protein stability index was 2.51.

With DGDGRTWQDSDTVKLLVDLELSYG as the variant, how does the protein stability index read?
The protein stability index was 1.53.
